{"source": "the DeepSol protein solubility set"}
{"assay": "soluble on expression in E. coli; label from the status in PepcDB or PDB records"}
{"sequence": "MEEPEEPADSGQSLVPVYIYSPEYVSMCDSLAKIPKRASMVHSLIEAYALHKQMRIVKPKVASMEEMATFHTDAYLQHLQKVSQEGDDDHPDSIEYGLGYDCPATEGIFDYAAAIGGATITAAQCLIDGMCKVAINWSGGWHHAKKDEASGFCYLNDAVLGILRLRRKFERILYVDLDLHHGDGVEDAFSFTSKVMTVSLHKFSPGFFPGTGDVSDVGLGKGRYYSVNVPIQDGIQDEKYYQICESVLKEVYQAFNPKAVVLQLGADTIAGDPMCSFNMTPVGIGKCLKYILQWQLATLILGGGGYNLANTARCWTYLTGVILGKTLSSEIPDHEFFTAYGPDYVLEITPSCRPDRNEPHRIQQILNYIKGNLKHVVIEGRGSHHHHHH", "soluble on expression in E. coli": "soluble"}
{"sequence": "MEESIMSIKVDMSLDCKGLACPMPIVKTKKAIEGLAPGQVIEVKATDKGSTIDIKSWASKVGHQYIGTKHEGDVLVHYVRKANEHEVNEVVKYPHTITNAELQSILSHGEESIVLDVREAAEFAFGHIPSAISVPLGELDSAVLDETKRIYVICRTGNRSDVACHMLKEKGYANVKNVIPGMLEWKGNVEK", "soluble on expression in E. coli": "not soluble"}
{"sequence": "MEEVKDDKTYKGFVDRLTLGITRVLENLPGVLDVRFVEKAPAEKRCLLSWEQKNNCALPEDLRDFYLTTDGFMLAWNSKLENEVVPVGCMMINNVAQLRPLIQSNVYCLPNAPTLADLDFDDDIDGSDGPEKPHFDLRSRIFELDSCNGNGKVCLVYKSCSPGVMAQQCEVWFLDRSLFWHYLTPSFTAYYRLMITHLGLPEWQYNFTPYGPSPQAKQWAALYQPLTFHSDPHLDTSSEPFLNKLDPTKAFRGKAKPPTPKKKQPAQVPASGTGTAKGQGLSGRHSVAKR", "soluble on expression in E. coli": "soluble"}
{"sequence": "MEFGASFAYRRIDAHVEATLQEAAQVLEKLVIERDAESAITVASQGTPDAISITQAAHETISIDSILRSSKQPKATIRTPRDSNKNRKLTFPPARIGFKSEQLETCDSGITDSTIDQDPPTPDSLFPSAIYIPAKQKPQMTVSISATTASSCSNKSLYRKHIEKLAIEPLEDIKHLKCRGLKKSKPDDLFPKATYDAGTGKPKMALSPSSMVSVDLSYASTTAKSNSLAYQPMEFVSSDGRVKLWLQPLEKQKKKNSEKSKKRERCIDDAPIPPKQLQSSTKLNIENRTKFSTNLSIGDHVIDLSGILNGSMKKKNLAKLVINGQSYSI", "soluble on expression in E. coli": "not soluble"}
{"sequence": "MEFTGDLGLGHVTIRASTSSNIRSEVLMEGEYGFIGKSIPTDNPAGQRIIFCGGEGTSSTTGAQITLYGANNTDSRRIVYNGDEHLFQSADVKPYNDNVTALGGPSNRFTTAYLGSNPIVTANGERKTEPVVFDDAFLDAWGDVHYIMYQWLDAVQLKGNDARIHFGVIAQQIRDVFIAHGLMDENSTNCRYAVLCYDKYPRMTDTVFSHNEIVEHTDEEGNVTTTEEPVYTEVVIHEEGEEWGVRPDGIFFAEAAYQRRKLERIEARLSALEQK", "soluble on expression in E. coli": "soluble"}
{"sequence": "MEGNQAGSSLDSLIASFNKRIGELQELVIARNMYPASTIPDLSAIDTALSSMELQVQSIKDRLREETEAIPKAKKLIEASLKQQGKLQKMSIYAPSHFPDKATMLNSDLNRCLLQENAKQYEQHSTLSSLKFDEEAAVLPKEKKGRGSPPLWYITVEELNSLSSYMRGRLTLEKVNAAINDMASYAEANAHLIAASKQKLAENLWEKALKLRDIVTEQAVKGKHFFLETDMKGPSLKLDNTGKAILTVLRHLGRISETRIGQNRVIILMKPH", "soluble on expression in E. coli": "soluble"}
{"sequence": "MEGPLSKWTNMVHGWQYRWFKIENDTLLYYTSREKMLKGQQRGQIRLTGAVVGIDGENNSLFTITVEGKTFHMQGRDLRERNQWVRILENSIRASSGYAKNVSVGTTPSQHFKQRTEEANEFLKTLVEKVKALEQLKSGERAVDEKKTIDSLIAASNNLTNNVKHAIIYLQMAQARLDPNMKTEKLMFTHPDLNEKPSSRETPGTVSDSTQTSTDKPISGIQHLDHLKPQRAESYASSDEEEFYDADEELIDLDNFESEKSGQESGDSNRTSDAAIMSSDEDGYDFGDSNEDFDEIYNNAEEHDIGNVQQDHGSVLMHLLSQVSVGMDLTKVTLPTFILERRSLLEMYADFFAHPDLFIATNGNDSAEKRMIAVVRYYLNSFYAARKSGVAKKPYNAILGETFRCRYSVPNSSLSGKKTESGPWPGSDEKQLTFIAEQVSHHPPISAFYAEMPSEGISFNAHIYTKSSFLGLSIGVASIGEGILTLHNYGDEQYTITFPSGYGRSIMSTPWFEFGGKVKVECEKTGYRADIEFLTKPFFGGKPHRIQGSICRDGAKKPVLTLRGEWNGTMYAKTQNGEEYVFVDVKAKPEVKKECVPVMQQGKRESRRLWRHVTAALLRNRIQTATTSKRFIEQRQRKEAKERLESGEKWTPLLFDTTDKDGEWMYKQKFGVRKAV", "soluble on expression in E. coli": "not soluble"}
{"sequence": "MEHRYRTNLKKVFLSDSELNQLNINIDQSGCKSFSEYARRTLLDPGMNFITIDTNGYQDLVFELKRIGNNINQIARSVNQSQLISGEELQELKKGIGELIKEVDKEFNLQAQKLKEFHGHH", "soluble on expression in E. coli": "not soluble"}
{"sequence": "MEIANKRAWREYISYEIIRLQMHQILTLFLLALAASPSQAVTDRSCGSDLSRLWLDIVFVVDNSKNMNLYNVYNTISNLFNPFVQIGTGYDDPRSTRVGFITYNWNATDVADFYKLQSYSDLSSQIQALSVTPLSRADETYIDTGLQAAINMINATGGLRDNYKKVVVLFTSKYNYYHTYPEDLTDYLKSTGVTIITVNTGGDSYTTQSLRDKIASKGMAFAMSDGNTTAELQKAVLAINCFCRPGWMQYHYPLKSDNIYSNYGVCLYRPDSAMTKFAAQSYCHSLTTNGYLVSELDQQKRAFNWDYLNSKGITINAFYNGLTNYNGTWWWDQPSGQPLWPLNPNSGAPPQRSGCVVDMKYSDGSISWTPISCTSFFRFLCESVACDTDNYCEF", "soluble on expression in E. coli": "not soluble"}
{"sequence": "MEIDKEILKRCKKYDRASFSQLFHLYEKYLYNLCYGYTQNTSDAMDLVQEIYIKVFKNIKNFDENLPFHPWVRKISVNTCLNFKRDNRGNVMSLNSKYYDSEFEEEDRLAEDYNMEQEVVNRINNEVVKESIKKLTYDYRMVIMLRYYEDLSYDEIASVLDMPIGTVKTKIYRAKNVLKKSLEKKLEVKK", "soluble on expression in E. coli": "not soluble"}
{"sequence": "MEIEVKFRVNFEDIKRKIEGLGAKFFGIEEQEDVYFELPSPKLLRVRKINNTGKSYITYKEILDKRNEEFYELEFEVQDPEGAIELFKRLGFKVQGVVKKRRWIYKLNNVTFELNRVEKAGDFLDIEVITSNPEEGKKIIWDVARRLGLKEEDVEPKLYIELINGLEHHHHHH", "soluble on expression in E. coli": "soluble"}
{"sequence": "MEKDAQAGEPEEEEVDDELSSTDLYEDSMAEVTLNETRGGHDSDPFDRSGEYDEDVDLAAPPPITPDIPEIPADVLISLKNRAEGTAIDLKNLKNPFDDSQKVDESEVEAPLK", "soluble on expression in E. coli": "soluble"}
{"sequence": "MEKIGETMAKLGQNTRVNSDQLIQTILADPEVASFISQHHLSQEQINLSLSKFNQFLVERQKYQLKDPSYIAKGYQPILAMNEGYADVSYLETKELVEAQKQAAISERIQLVSLPKSYRHIHLSDIDVNNASRMEAFSAILDFVEQYPSAEQKGLYLYGDMGIGKSYLLAAMAHELSEKKGVSTTLLHFPSFAIDVKNAISNGSVKEEIDAVKNVPVLILDDIGAEQATSWVRDEVLQVILQYRMLEELPTFFTSNYSFADLERKWATIKGSDETWQAKRVMERVRYLAREFHLEGANRRLEHHHHHH", "soluble on expression in E. coli": "soluble"}
{"sequence": "MEKKVEAILEFDKIKKQLAEFASSSLGEQAIYELAPATDFQVVQKAQLETEEGAKIIRLRGSAPITGLTDVFAHLKRLEIGGDLNGLEIYQIGSNLRVSRQMKNFMNDLLEIGVEIPLLGALSDELLVLKDVEEDIAISIDESGKILDTASEALSSIRRTLRRTEDRVREKLESYLRDRNASKMLSDAVITIRNDRYVIPVKQEYKGHYGGIVHDQSASGQTLFIEPQSVVDLNNERKALQAKEKQEIERILAEISASLAGWINEIHHNTFILGRFDFILAKARFGKALKAVTPHLSDTGIVHLIAARHPLLDAEKVVANDIYLGEDFSTIVITGPNTGGKTITLKTLGLLTLMAQSGLQIPAQEDSTIAVFENVFADIGDEQSIEQSLSTFSSHMTNIVSILEKVNHKSLILYDELGAGTDPQEGAALAIAILDASHKKGASVVATTHYPELKAYGYNRAHATNASVEFNVETLSPTYKLLIGVPGRSNAFDISRRLGLSESIITEARSLVDTESADLNDMISSLEEKRNLAEREYEEARELARGADALLKDLQKEITNYYQQKDKLLEQANEKAAGIVEKAETEAEEIIHELRTMQLNGAAGIKEHELIDAKTRLGKAKPKTINKAIPKAPKQKPHVFQAGDNVRVLSLGQKGTLLNKISDKEWNVQIGIIKMKIKTTDLEYIEPEKPKKQRIITSVHSSDSPAKSELDLRGERYEDAIQKVDKYLDEALLAGYPQVAIIHGKGTGALRTGVTEYLKNHRMVKSIRFGAAAEGGNGVTIVEFKLEHHHHHH", "soluble on expression in E. coli": "not soluble"}
{"sequence": "MEKMIITAAICGAEVLKEHNPAVPYTVEECVREAKSAYDAGASIIHLHVRYDDGTPTQDRNRFKEVMEAIKAVCPDVIIQPSTGGAVGMTNDERLQPTELFPEMATLDCGTLNFGGDEVFTNTENTIKYFGEKMIERGIKPELEVFDKSMIDMALRLHRKGYIQSPMHFDFVMGVNGGISGEMRDFVFLRESIPADATYTVAGVGRYEFPLAALAIIDGGHVRVGFEDNVYISKGVLARSNGELVEKVVRMAKEMGREIATPAEARRILGLSK", "soluble on expression in E. coli": "soluble"}
{"sequence": "MEKNWYVVHTYSGYENKVKANLEKRVESMGMQDKIFRVVVPEEEETDIKNGKKKVVKKKVFPGYVLVEIVMTDDSWYVVRNTPGVTGFVGSAGSGSKPTPLLPGEAETILKRMGMDERKTDIDFELKETVKVIDGPFANFTGSIEEIDYDKSKVKVFVNMFGRETPVELEFTQIDKL", "soluble on expression in E. coli": "soluble"}
{"sequence": "MEKPDINVAEAWEQYWNKTLVNATPVLWDANVERAVVVDLPRFQSFFDTELPLIDFACGNGTQTKFLSQFFPRVIGFDVSKTALEMASKENTAANISYRLLDGLVPEQAAQIHSEIGDANIYMRTGFHHIPVEKRELLAQSLRTLLGKQGVMYLIELGTGCIEFFNSLLEKYGKLPYELSLVMEHGIRPGIFTTEDIELYFPDFEILSQGESLFQSIHKLPDGNYATPPAFWAVIKRHLEHHHHHH", "soluble on expression in E. coli": "soluble"}
{"sequence": "MEKSYMKHELWGDGDFQEDDVWDVLDGYQSPFMISSNHTTKPSFSTQTLLPSEPRMIPERQRTEGMAPMRQQSVPVNVPDWSMVQRKKTKKVVDDENVSPEEYFLRRSRSSSSSSVMEGVGRKLKGRDLSKVRNAILKQTGFLE", "soluble on expression in E. coli": "soluble"}
{"sequence": "MELAYVDAKKEEFDTLDKNHDGKVSLAEYEEHFHEASSKNEKSRTAYFAKVFEDFDEDFNMALSREELERVLAERFLVKPRENFPKLFFKFDVDKSGGLDLTEYMKFDAEFPFDQTDPVGGGPSKSNNHHDQMHTEVPQDADAAAIAAVLAQASPTLNKSPVGVAPPQTSPGLHPVAPGLFQTAVPIKKV", "soluble on expression in E. coli": "soluble"}
{"sequence": "MELDDFDPEDKEILSWDINDVKLPQNVKTTDWFQEWPDSYVKHIYSSDDRNAQRHLSSWAMRNTNNHNSRILKKSCLGVVVCSRDCSTEEGRKIYLRPAICDKARQKQQRKSCPNCNGPLKLIPCRGHGGFPVTNFWRHDGRFIFFQSKGEHDHPRPETKLEAEARRAMKKVHM", "soluble on expression in E. coli": "soluble"}
{"sequence": "MELDVKFEEKDLQHIRQVFSRLRGLGKSDGLTRKMASVLQEDAEDAFAMERTPDGVKWRDLSPKYKKQRYNKGYTGNILQRHGDLAGSLNIAYGDNFAAVGVAEHYGEYHQLGTKKMSARPFLGISEDGVEEIKEILNNAIRRALRD", "soluble on expression in E. coli": "not soluble"}
{"sequence": "MELKSTRHTKYLCNYHFVWIPKHRRNTLVNEIAEYTKEVLKSIAEELGCEIIALEVMPDHIHLFVNCPPRYAPSYLANYFKGKSARLILKKFPQLNKGKLWTRSYFVATAGNVSSEVIKKYIEEQWRKEGEEE", "soluble on expression in E. coli": "soluble"}
